The text below walks through data of patent US20110166329A1.

Test [1] deals with human serum amyloid P component (SAP) (human) (UniProt P02743). Briefly: Biacore; isolated pure SAP alone immobilised on the chip. In general terms: In SPR one partner is held on a chip, and binding of the other changes the refractive index at the surface.
Test [2] shares this target. Put plainly: IRMA; SAP alone covalently immobilised; in EDTA; radiolabelled sheep anti-mouse IgG; mean n=3.
The target is the same in test [3]. Briefly: IRMA; SAP non-covalently immobilised; antibody at 1 µg/ml; radiolabelled sheep anti-mouse IgG2a.
Test [4] has the same target. Briefly: IRMA; SAP alone covalently immobilised; in calcium; radiolabelled sheep anti-mouse IgG; mean n=3.
For test [5] the target is unchanged. Briefly: IRMA; SAP non-covalently immobilised; antibody at 10 µg/ml; radiolabelled sheep anti-mouse IgG2a.
Test [6] shares this target. Briefly: IRMA; SAP non-covalently immobilised; antibody at 0.1 µg/ml; radiolabelled sheep anti-mouse IgG2a.
Test [7] shares this target. Put plainly: IRMA; SAP non-covalently immobilised; antibody at 100 µg/ml; radiolabelled sheep anti-mouse IgG2a.
For test [8] the target is unchanged. Briefly: IRMA; SAP non-covalently immobilised; antibody at 0.01 µg/ml; radiolabelled sheep anti-mouse IgG2a.
The target is the same in test [9]. Put plainly: IRMA; SAP non-covalently immobilised; antibody at 0.001 µg/ml; radiolabelled sheep anti-mouse IgG2a.
Test [10] has as its target human SAP complexed with CPHPC and covalently cross linked with BS3 (human) (UniProt P02743). Briefly: IRMA; SAP-CPHPC complex covalently immobilised; in EDTA; radiolabelled sheep anti-mouse IgG; mean n=3.
Test [11] shares this target. Put plainly: IRMA; SAP-CPHPC complex covalently immobilised; in calcium; radiolabelled sheep anti-mouse IgG; mean n=3.
The target in test [12] is human serum amyloid P component (SAP) (human) (UniProt P02743). Put plainly: IRMA; SAP non-covalently immobilised; antibody at 1 µg/ml; radiolabelled sheep polyvalent anti-mouse IgG.
Test [13] has the same target. Put plainly: IRMA; SAP non-covalently immobilised; antibody at 10 µg/ml; radiolabelled sheep polyvalent anti-mouse IgG.
Test [14] has the same target. Briefly: IRMA; SAP non-covalently immobilised; antibody at 0.1 µg/ml; radiolabelled sheep polyvalent anti-mouse IgG.
The target is the same in test [15]. Briefly: IRMA; SAP non-covalently immobilised; antibody at 100 µg/ml; radiolabelled sheep polyvalent anti-mouse IgG.
For test [16] the target is unchanged. Briefly: IRMA; SAP non-covalently immobilised; antibody at 0.01 µg/ml; radiolabelled sheep polyvalent anti-mouse IgG.
Test [17] shares this target. Put plainly: IRMA; SAP non-covalently immobilised; antibody at 0.001 µg/ml; radiolabelled sheep polyvalent anti-mouse IgG.
For test [18] the target is unchanged. Put plainly: IRMA; SAP alone captured on immobilised sheep polyclonal anti-human SAP; in calcium; radiolabelled sheep anti-mouse IgG; mean n=3.
For test [19], the target named is human SAP complexed with CPHPC and covalently cross linked with BS3 (human) (UniProt P02743). Put plainly: IRMA; SAP-CPHPC complex captured on immobilised sheep polyclonal anti-human SAP; in calcium; radiolabelled sheep anti-mouse IgG; mean n=3.
Sequence of human SAP complexed with CPHPC and covalently cross linked with BS3 (human) (P02743 20-223, one chain of several): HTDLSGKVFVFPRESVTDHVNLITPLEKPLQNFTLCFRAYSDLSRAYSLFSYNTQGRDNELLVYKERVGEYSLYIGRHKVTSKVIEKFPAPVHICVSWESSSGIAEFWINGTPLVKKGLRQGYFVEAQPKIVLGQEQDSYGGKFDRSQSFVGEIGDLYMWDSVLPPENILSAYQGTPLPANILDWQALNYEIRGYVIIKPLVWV

Sequence of human serum amyloid P component (SAP) (human) (P02743 20-223): as the sequence (P02743 20-223, one chain of several) above

For orientation: koff means a measure of how fast the partners let go of each other. A lower koff goes with a long-lived complex. What is called kon is a measure of how fast the partners come together. A high value points to fast association. In turn, SAP-5 (antibody) had a koff in test [1] of 6e-05 s⁻¹. For the same substance, in [1], the kon was found to be 20000 M⁻¹ s⁻¹. Also, the Activity bound (d.p.m.) in test [2] turned out to be 4050 d.p.m; in [3] it was 1650 d.p.m; in test [4] it was 5580 d.p.m; in [5] it was 1980 d.p.m; in test [6], 589 d.p.m; in test [7] it was 2200 d.p.m. Also, the Activity bound (d.p.m.) stood at 222 d.p.m in [8]; 94 d.p.m in [9]; 5140 d.p.m in [10]; 6160 d.p.m in [11]; 12100 d.p.m in test [12]; 15400 d.p.m in test [13]. For the same substance, the Activity bound (d.p.m.) in [14] worked out at 4560 d.p.m; in test [15], 16200 d.p.m; in test [16] it was 902 d.p.m; in test [17] it was 195 d.p.m; in test [18] it was 9310 d.p.m; in test [19], 7120 d.p.m.
